The Immune Epitope Database (IEDB)

Columns and labels:
HLA-B*15:01 [1] = assay: IEDB peptide-MHC binding, purified MHC/competitive/fluorescence; filed as Kd, often an IC50 or EC50 that approximates it; ≥ and ≤ were set here for values at or beyond the usual limits of such assays; details: source organism: Yersinia pestis Nepal516
HLA-B*15:42 = assay: as above
HLA-B*40:01 [2] = assay: as above; details: source organism: Yersinia pestis Nepal516
HLA-B*45:06 = assay: as above
HLA-B*83:01 = assay: as above; details: source organism: Yersinia pestis Nepal516
HLA-C*04:01 = assay: as above
HLA-B*07:02 [3] = assay: IEDB peptide-MHC binding, purified MHC/direct/fluorescence; filed as Kd, often an IC50 or EC50 that approximates it; ≥ and ≤ were set here for values at or beyond the usual limits of such assays; details: source organism: Mycobacterium tuberculosis
HLA-B*15:01 [4] = assay: as above
HLA-B*51:01 = assay: as above; details: source organism: Mycobacterium tuberculosis
HLA-A*32:07 = assay: IEDB peptide-MHC binding, purified MHC/competitive/fluorescence; filed as Kd, often an IC50 or EC50 that approximates it; ≥ and ≤ were set here for values at or beyond the usual limits of such assays; details: source organism: Mycobacterium tuberculosis
HLA-A*01:01 [5] = assay: IEDB peptide-MHC binding, purified MHC/direct/fluorescence; filed as Kd, often an IC50 or EC50 that approximates it; ≥ and ≤ were set here for values at or beyond the usual limits of such assays; details: source organism: Buffalopox virus
HLA-A*02:01 = assay: as above; details: source organism: Buffalopox virus
HLA-A*26:03 = assay: as above
HLA-A*68:02 = assay: as above; details: source organism: Buffalopox virus
HLA-A*69:01 = assay: as above; details: source organism: Buffalopox virus
HLA-B*27:05 = assay: as above; details: source organism: Buffalopox virus
HLA-B*39:01 = assay: as above; details: source organism: Buffalopox virus
HLA-B*40:01 [6] = assay: as above; details: source organism: Buffalopox virus
HLA-B*46:01 = assay: as above; details: source organism: Buffalopox virus
HLA-B*48:01 = assay: as above; details: source organism: Buffalopox virus
HLA-B*57:01 = assay: as above; details: source organism: Buffalopox virus
HLA-B*58:01 = assay: as above; details: source organism: Buffalopox virus
HLA-A*26:02 = assay: IEDB peptide-MHC binding, purified MHC/competitive/fluorescence; filed as Kd, often an IC50 or EC50 that approximates it; ≥ and ≤ were set here for values at or beyond the usual limits of such assays; details: source organism: Variola virus
HLA-B*07:02 [7] = assay: as above; details: source organism: Variola virus
HLA-B*15:17 = assay: as above; details: source organism: Variola virus
HLA-B*18:01 = assay: as above; details: source organism: Variola virus
HLA-B*35:01 = assay: as above; details: source organism: Variola virus
HLA-A*01:01 [8] = assay: IEDB peptide-MHC binding, purified MHC/competitive/fluorescence; ≥ and ≤ were set here for values at or beyond the usual limits of such assays; details: source organism: Zaire ebolavirus
HLA-A*24:02 = assay: as above; details: source organism: Zaire ebolavirus
[9] = source organism: Yersinia pestis Nepal516
[10] = source organism: Mycobacterium tuberculosis

Work on VEMQLAVVI yielded a Kd (HLA-B*15:01 [1]) of at least 20 µM, a Kd (HLA-B*15:42; [9]) of at least 5 µM and a Kd (HLA-B*40:01 [2]) of 0.0079 µM. For the same sequence, the Kd (HLA-B*45:06; [9]) was at least 5 µM, the Kd (HLA-B*83:01) was at least 5 µM and the Kd (HLA-C*04:01; [9]) was at least 5 µM.
In the case of ALRQARAAF, the Kd (HLA-B*07:02 [3]) is reported as 0.0089 µM, the Kd (HLA-B*15:01 [4]; source organism: Mycobacterium tuberculosis str. Haarlem) is reported as 0.012 µM and the Kd (HLA-B*51:01) is reported as at least 20 µM. It also gave a Kd (HLA-A*32:07) of 0.157 µM, a Kd (HLA-B*15:42; [10]) of at least 5 µM and a Kd (HLA-B*45:06; [10]) of at least 5 µM. For the same sequence, the Kd (HLA-C*04:01; [10]) was at least 5 µM.
IHSDQLSKF gave a Kd (HLA-A*01:01 [5]) of at least 20 µM, a Kd (HLA-A*02:01) of at least 20 µM and a Kd (HLA-A*26:03; source organism: Variola virus) of at least 20 µM. For the same sequence, the Kd (HLA-A*68:02) was at least 20 µM, the Kd (HLA-A*69:01) was at least 20 µM and the Kd (HLA-B*15:01 [4]; source organism: Buffalopox virus) was at least 20 µM. For the same sequence, the Kd (HLA-B*27:05) was at least 20 µM, the Kd (HLA-B*39:01) was at least 20 µM and the Kd (HLA-B*40:01 [6]) was at least 20 µM. The Kd (HLA-B*46:01) was at least 20 µM, the Kd (HLA-B*48:01) was at least 20 µM and the Kd (HLA-B*57:01) was at least 20 µM. The Kd (HLA-B*58:01) was at least 20 µM, the Kd (HLA-A*26:02) was 2.68 µM and the Kd (HLA-B*07:02 [7]) was at least 20 µM. It also gave a Kd (HLA-B*15:17) of at least 20 µM, a Kd (HLA-B*18:01) of 4.57 µM and a Kd (HLA-B*35:01) of 2.38 µM.
With HVFVCGNNM the Kd (HLA-A*26:03; source organism: Fowlpox virus) was 0.076 µM.
HKEGAFFLY gave an IC50 (HLA-A*01:01 [8]) of at least 136 µM and an IC50 (HLA-A*24:02) of at least 149 µM.
